Test results from article PMC7614720.

Substrate: C[C@@H](O)[C@H]1C(=O)N2C(C(=O)O)=C([C@H]3CCCO3)S[C@H]12
Assay: purified protein
Assay type: biochemical, Stenotrophomonas maltophilia
Conditions: two Zn2+ ions active site

B1: L1 (Stenotrophomonas maltophilia) (protein)
chain: VDASWLQPMAPLQIADHTWQIGTEDLTALLVQTPDGAVLLDGGMPQMASHLLDNMKARGVTPRDLRLILLSHAHADHAGPVAELKRRTGAKVAANAESAVLLARGGSDDLHFGDGITYPPANADRIVMDGEVITVGGIVFTAHFMAGHTPGSTAWTWTDTRNGKPVRIAYADSLSAPGYQLQGNPRYPHLIEDYRRSFATVRALPCDVLLTPHPGASNWDYAAGARAGAKALTCKAYADAAEQKFDGQLAKETAGAR
Km: 36.3 µM | kcat: 43.7 s⁻¹ | kcat/Km: 1.2e+06 M⁻¹ s⁻¹
